Assay [1] concerns the target biotinylated human N1 ectodomain fragment containing EGF repeats 6–15 (human) (UniProt P46531). The assay is described as follows: BLI; BLItz instrument; biotinylated Notch1 fragment loaded on streptavidin biosensors, dipped into ligand samples of varying concentration until equilibrium; HBS-P buffer with 0.005% surfactant P20 and 5 mM CaCl2; equilibrium curves fitted with a one site specific binding model.

Assay [2] deals with Notch1 expressed in N1rep ES cells (UniProt Q01705).
The target in assay [3] is Notch2 expressed in N2rep ES cells (UniProt O35516).
For assay [4], the target named is Notch1 expressed in N1rep ES cells (UniProt Q01705). The source holds these as a separate data set.

Five substances from paper PMC6202052 can be followed below.

As a reminder, the Kd is a measure of binding affinity in units of concentration. A lower Kd goes with higher affinity.

Chain of biotinylated human N1 ectodomain fragment containing EGF repeats 6–15 (human) (P46531 216-604): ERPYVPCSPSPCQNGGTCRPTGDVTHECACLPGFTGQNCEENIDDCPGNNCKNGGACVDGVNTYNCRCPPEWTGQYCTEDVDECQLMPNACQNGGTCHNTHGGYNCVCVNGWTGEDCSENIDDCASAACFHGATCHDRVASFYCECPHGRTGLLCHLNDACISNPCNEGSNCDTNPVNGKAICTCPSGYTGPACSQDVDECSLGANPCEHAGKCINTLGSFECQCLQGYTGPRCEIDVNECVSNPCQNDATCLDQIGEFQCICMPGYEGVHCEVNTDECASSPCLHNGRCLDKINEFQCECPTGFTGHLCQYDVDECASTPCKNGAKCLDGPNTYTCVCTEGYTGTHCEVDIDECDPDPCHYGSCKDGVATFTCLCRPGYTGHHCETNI
Chain of mDLL4 (mouse DLL4, full length, expressed on ES cells) (Q9JI71 27-686): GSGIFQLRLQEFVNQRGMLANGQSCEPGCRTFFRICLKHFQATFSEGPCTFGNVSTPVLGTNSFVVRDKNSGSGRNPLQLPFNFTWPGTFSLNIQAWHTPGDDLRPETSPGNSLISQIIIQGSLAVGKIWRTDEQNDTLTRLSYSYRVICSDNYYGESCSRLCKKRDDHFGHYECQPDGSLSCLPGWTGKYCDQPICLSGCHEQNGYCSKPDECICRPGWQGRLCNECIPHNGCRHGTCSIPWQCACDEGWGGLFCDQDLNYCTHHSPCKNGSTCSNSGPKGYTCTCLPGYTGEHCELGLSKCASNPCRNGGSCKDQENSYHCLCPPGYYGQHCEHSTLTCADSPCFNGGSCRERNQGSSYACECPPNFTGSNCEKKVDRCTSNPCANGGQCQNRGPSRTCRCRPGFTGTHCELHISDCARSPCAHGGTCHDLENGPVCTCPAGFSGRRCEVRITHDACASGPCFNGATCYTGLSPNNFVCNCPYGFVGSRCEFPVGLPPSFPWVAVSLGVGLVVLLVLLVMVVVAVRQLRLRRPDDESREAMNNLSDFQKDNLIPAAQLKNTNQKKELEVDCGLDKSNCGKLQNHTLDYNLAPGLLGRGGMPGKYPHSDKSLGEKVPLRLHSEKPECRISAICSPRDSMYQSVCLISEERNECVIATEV
Chain of Notch1 expressed in N1rep ES cells (Q01705 19-2531): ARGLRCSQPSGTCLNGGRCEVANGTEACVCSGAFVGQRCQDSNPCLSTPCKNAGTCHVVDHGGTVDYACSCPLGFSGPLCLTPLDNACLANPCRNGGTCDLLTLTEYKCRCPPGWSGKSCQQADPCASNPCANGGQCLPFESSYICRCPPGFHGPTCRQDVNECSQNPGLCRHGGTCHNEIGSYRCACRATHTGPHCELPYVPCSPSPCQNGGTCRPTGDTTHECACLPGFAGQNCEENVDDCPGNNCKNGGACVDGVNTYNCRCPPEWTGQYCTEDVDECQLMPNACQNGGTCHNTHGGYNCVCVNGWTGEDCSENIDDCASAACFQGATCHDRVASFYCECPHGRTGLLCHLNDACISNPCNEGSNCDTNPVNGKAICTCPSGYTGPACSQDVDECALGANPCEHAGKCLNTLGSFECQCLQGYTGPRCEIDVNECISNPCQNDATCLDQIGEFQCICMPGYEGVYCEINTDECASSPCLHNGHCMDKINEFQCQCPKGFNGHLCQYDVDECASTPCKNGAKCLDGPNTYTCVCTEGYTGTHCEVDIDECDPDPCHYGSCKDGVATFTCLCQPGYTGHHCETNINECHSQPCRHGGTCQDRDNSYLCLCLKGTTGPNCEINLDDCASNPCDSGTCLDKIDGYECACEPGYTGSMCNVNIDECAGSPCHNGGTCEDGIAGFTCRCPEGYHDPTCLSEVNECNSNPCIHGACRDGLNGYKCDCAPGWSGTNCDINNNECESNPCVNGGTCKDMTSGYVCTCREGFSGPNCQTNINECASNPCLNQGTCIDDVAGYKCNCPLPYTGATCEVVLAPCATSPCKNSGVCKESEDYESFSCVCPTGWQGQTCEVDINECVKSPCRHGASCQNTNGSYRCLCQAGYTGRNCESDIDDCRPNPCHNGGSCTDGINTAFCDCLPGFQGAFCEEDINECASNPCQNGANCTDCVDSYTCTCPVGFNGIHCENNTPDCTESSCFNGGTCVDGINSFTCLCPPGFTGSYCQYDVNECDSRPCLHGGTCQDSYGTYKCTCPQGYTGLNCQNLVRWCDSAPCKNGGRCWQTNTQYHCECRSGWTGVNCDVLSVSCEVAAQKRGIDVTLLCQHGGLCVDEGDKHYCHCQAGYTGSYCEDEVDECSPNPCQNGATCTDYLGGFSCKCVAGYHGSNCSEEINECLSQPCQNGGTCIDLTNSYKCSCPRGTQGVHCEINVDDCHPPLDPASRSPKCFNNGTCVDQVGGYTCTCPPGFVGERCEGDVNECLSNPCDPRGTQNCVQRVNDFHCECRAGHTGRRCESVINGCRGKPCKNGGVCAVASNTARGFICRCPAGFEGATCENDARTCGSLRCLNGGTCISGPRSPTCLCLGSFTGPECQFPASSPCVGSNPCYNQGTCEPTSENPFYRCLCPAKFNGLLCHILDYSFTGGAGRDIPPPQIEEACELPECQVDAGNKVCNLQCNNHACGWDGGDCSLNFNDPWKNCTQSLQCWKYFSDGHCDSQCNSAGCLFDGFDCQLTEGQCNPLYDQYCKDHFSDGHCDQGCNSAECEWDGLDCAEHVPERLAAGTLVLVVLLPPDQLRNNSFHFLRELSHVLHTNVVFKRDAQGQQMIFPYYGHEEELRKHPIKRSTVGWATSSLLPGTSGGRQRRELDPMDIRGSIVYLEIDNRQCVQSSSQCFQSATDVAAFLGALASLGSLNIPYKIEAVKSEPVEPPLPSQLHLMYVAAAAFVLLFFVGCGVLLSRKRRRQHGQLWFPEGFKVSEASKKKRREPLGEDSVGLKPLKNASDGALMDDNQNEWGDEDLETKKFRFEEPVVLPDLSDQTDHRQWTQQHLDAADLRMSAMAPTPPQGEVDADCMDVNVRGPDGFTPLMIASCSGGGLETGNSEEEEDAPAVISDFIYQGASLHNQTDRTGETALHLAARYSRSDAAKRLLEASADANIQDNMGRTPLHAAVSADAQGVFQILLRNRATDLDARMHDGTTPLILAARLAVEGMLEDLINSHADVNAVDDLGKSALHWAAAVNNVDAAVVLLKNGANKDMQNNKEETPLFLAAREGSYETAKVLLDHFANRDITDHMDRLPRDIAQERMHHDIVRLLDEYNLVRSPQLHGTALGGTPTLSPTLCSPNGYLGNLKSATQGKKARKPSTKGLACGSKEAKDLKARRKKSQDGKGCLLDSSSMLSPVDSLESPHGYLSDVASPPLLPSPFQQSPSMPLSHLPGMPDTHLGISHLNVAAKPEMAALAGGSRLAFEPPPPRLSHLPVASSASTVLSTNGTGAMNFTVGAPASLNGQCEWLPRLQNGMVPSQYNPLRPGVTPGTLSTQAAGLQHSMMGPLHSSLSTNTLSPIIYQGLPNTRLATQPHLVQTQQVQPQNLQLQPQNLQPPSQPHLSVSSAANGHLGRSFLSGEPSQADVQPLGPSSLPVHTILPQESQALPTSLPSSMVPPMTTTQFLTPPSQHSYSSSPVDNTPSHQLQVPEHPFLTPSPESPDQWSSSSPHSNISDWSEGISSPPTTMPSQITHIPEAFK
Chain of mDLL1 (mouse DLL1, full length, expressed on ES cells) (Q61483 18-722): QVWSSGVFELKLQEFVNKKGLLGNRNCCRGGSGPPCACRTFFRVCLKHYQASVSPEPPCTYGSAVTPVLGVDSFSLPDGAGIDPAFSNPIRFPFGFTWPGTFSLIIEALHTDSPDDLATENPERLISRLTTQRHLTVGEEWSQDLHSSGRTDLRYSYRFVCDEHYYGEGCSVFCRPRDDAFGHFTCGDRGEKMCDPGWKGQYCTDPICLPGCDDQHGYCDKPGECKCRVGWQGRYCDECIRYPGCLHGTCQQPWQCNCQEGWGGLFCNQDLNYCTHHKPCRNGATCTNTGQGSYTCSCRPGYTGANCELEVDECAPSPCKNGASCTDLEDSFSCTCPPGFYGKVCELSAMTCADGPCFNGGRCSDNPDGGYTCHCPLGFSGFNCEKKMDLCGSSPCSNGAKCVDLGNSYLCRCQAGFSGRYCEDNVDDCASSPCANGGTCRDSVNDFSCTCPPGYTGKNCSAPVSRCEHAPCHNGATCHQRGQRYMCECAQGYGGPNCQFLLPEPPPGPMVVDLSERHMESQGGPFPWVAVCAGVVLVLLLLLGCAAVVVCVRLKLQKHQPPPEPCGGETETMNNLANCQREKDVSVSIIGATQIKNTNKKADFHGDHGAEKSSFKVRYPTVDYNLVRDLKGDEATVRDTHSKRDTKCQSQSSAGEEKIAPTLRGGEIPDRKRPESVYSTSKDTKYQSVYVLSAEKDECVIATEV

As to “D1contD4 (DLL1 N-terminus through EGF5 with the N1 contact amino acids of the MNNL and DSL domains replaced by those of DLL4) (domain or fragment)”, the Kd in assay [1] came to 0.326 µM.

“mDLL1 (mouse DLL1, full length, expressed on ES cells) (from UniProt Q61483 18-722) (ligand)” yielded a luciferase Notch reporter in N1rep ES cells co-cultured with DLL1-expressing ES cells, against the basal signal with E14 ES cells in assay [2] of 10 fold.

Consider “mDLL4 (mouse DLL4, full length, expressed on ES cells) (from UniProt Q9JI71 27-686) (ligand)”, for which, in assay [3], the luciferase Notch reporter in N2rep ES cells co-cultured with ligand-expressing ES cells; activation by DLL4 as fold of activation by DLL1, non-normalized is 0.468 fold of DLL1; the luciferase Notch reporter in N2rep ES cells co-cultured with ligand-expressing ES cells; activation by DLL4 normalized to DLL1 activation and corrected for protein expression and cell surface levels was 0.35 fold of DLL1. Besides, in assay [4], the luciferase Notch reporter in N1rep ES cells co-cultured with ligand-expressing ES cells; activation by DLL4 as fold of activation by DLL1, non-normalized was 12.5 fold of DLL1; the luciferase Notch reporter in N1rep ES cells co-cultured with ligand-expressing ES cells; activation by DLL4 normalized to DLL1 activation and corrected for protein expression and cell surface levels is 9.42 fold of DLL1.

In turn, “D4contD1 (DLL4 N-terminus through EGF5 with the N1 contact amino acids of the MNNL and DSL domains replaced by those of DLL1) (domain or fragment)” had a Kd in assay [1] of 0.327 µM.

In turn, “D4^N109G (DLL4 N-terminus through EGF5 with the N109G mutation) (from UniProt Q9JI71 27-686) (domain or fragment)” registered a Kd in assay [1] of 0.341 µM.
